Source: patent US20180036395A1, “DOSAGE AND ADMINISTRATION OF MONOSPECIFIC AND BISPECIFIC ANTI-IGR-1R AND ANTI-ERBB3 ANTIBODIES” (Merrimack Pharmaceuticals, Inc., priority 2012, published 2018)

How the values were obtained:
pancreatic carcinoma = experiment: Treatment of patients with pancreatic cancer; format: in vivo, human
Protocol: P4-G1-M1.3 is formulated in 20 mM histidine, 100 mM arginine-HCl, 3% sucrose, at pH 5.5 supplemented with 0.002-0.02% of Tween® 80 at concentration range 5-15 mg/mL. P4-G1-M1.3 is administered to patients at 6 mg/kg, 12 mg/kg, 20 mg/kg, 30 mg/kg, 40 mg/kg, 50 mg/kg or 60 mg/kg q7d, ql4d, q21d, or q28d with a loading dose of 12 mg/kg, 20 mg/kg, 40 mg/kg, 40 mg/kg or 60 mg/kg Everolimus is administered to patients at 2.5 mg, 5 mg, or 10 mg orally once a day or once every other day.
Patients with pancreatic carcinoma are treated with a combination of an effective amount of gemcitabine, cytarabine, capecitabine, or 5-fluorouracil (5-FU) and an effective amount of P4-G1-M1.3. Patients are dosed with P4-G1-M1.3 as described in Example 1. Patients are dosed with the manufacturer's recommended dose of gemcitabine, capecitabine or 5-FU.
Patients with pancreatic cancer (KRAS wild-type and KRAS mutant) are treated with a combination of an effective amount of a MEK inhibitor (e.g., GSK1120212, BAY 86-9766 or AZD6244) and an effective amount of P4-G1-M1.3. Patients are dosed with P4-G1-M1.3 as described in Example 1. The clinical dose of MEK inhibitor is the dose used for that inhibitor in phase II or phase III clinical trials.

[1] = system: Caki-1 renal cell carcinoma cancer cells; experiment: Caki-1 renal cell carcinoma xenograft study; format: in vivo, human
Protocol: The y-axis represents mean tumor volume in mm^3 and the x-axis represents time in days.
For each of the xenograft studies below, cells are resuspended 1:1 with PBS:Growth factor-reduced Matrigel® and injected subcutaneously into Nu/Nu mice. Tumors are allowed to develop for 8 days. Antibodies are injected intraperitoneally every 3 days (q3d) at the indicated doses/mouse. Tumor lengths and widths are measured twice a week manually by caliper, and tumor volume calculated using the following formula: π/6(L×W^2). Each arm of a study contains 10 animals. All studies are carried out using methods approved by an internal IACUC panel. […]

BxPC-3 cells = experiment: In vitro signaling ELISA, KRAS wild-type cells; format: cell-based, human; conditions: combination 500 nM P4-G1-M1.3 + 250 nM GSK1120212, 24 hours, 10% serum, FIG. 3
Protocol: Cells were treated with 500 nM P4-G1-M1.3, 250 nM GSK1120212 or the combination for 24 hours in 10% serum and ELISA assays were performed. The data was normalized to 10% serum without treatment.
The preclinical models to support this example are performed using BxPC-3 (KRAS wild-type) and KP4 (KRAS mutant) cell lines.

B1: P4-G1-M1.3: anti-IGF-1R+anti-ErbB3 polyvalent bispecific antibody, IgG1-(scFv)2 (SEQ ID NO:148 and SEQ ID NO:149) (protein)
chain 1: EVQLLQSGGGLVQPGGSLRLSCAASGFLFSSYPMHWVRQAPGKGLEWVGSISPSGGATPYADSVKGRFTISRDNSKNTLYLQMNSLRPEDTAVYYCAKDFYNILTGNAFDKWGQGTSVTVSSASTGGGGSGGGGSGGGGSGGGGSDIQLTQSPSSLSASLGDRVTITCRASQGISSYLAWYQQKPGKAPKLLIYAGSTPQSGVPSRFSGSGSGTEFTLTISSLQPEDSGTYYCQQYWTWPLTFGGGTKVEIKRT
chain 2: EVQLVESGGGLVQPGRSLRLSCAASGFTFDDYAMHWVRQAPGKGLEWVSGISWNSGSTGYADSVKGRFTISRDNAKNSLYLQMNSLRAEDTALYYCARDLGYNQWLEGFDYWGQGTLVTVSSASTGGGGSGGGGSGGGGSGGGGSSSELTQDPAVSVALGQTVRITCQGDSLRSYYASWYQQKPGQAPVLVIYGKNNRPSGIPDRFSGSSSGNTASLTITGAQAEDEADYYCMSRDHPGNQWVFGGGTKVTVLG
modifications: Synthetic polypeptide:Anti-IGF-1R scFvs M76; Synthetic polypeptide:Anti-ErbB3 scFvs P6L
Question: With B1 as the molecule, how does the treatment outcome (pancreatic carcinoma; pancreatic cancer (KRAS wild-type and KRAS mutant), MEK inhibitor (GSK1120212, BAY 86-9766 or AZD6244) + P4-G1-M1.3) read?
Answer: combinatorially enhanced outcome

Question: And the treatment outcome (pancreatic carcinoma; patients with pancreatic carcinoma, gemcitabine, cytarabine, capecitabine, or 5-fluorouracil + P4-G1-M1.3)?
Answer: combinatorially enhanced outcome

Question: What about the “response to everolimus (tumor growth)” value ([1]; Caki-1 xenograft in Nu/Nu mice, 3mpk everolimus+500 μg P4-G1-M1.3, FIG. 1) of the same molecule?
Answer: potentiates responses to everolimus

Question: And the “tumor growth (mean tumor volume)” value ([1]; Caki-1 xenograft in Nu/Nu mice, P4-G1-M1.3 at 500, 300, or 100 μg, FIG. 1)?
Answer: suppresses tumor growth

Question: What about the tumor growth ([1]; Caki-1 xenograft, Example 12) of the same molecule?
Answer: suppresses tumor growth

Question: And the response to sirolimus ([1]; Caki-1 xenograft, combination with sirolimus)?
Answer: potentiates responses to sirolimus

Question: And the “signaling (pAkt Ser473, pERK)” value (BxPC-3 cells)?
Answer: inhibition of signaling
